Data published in the supplement of paper PMC9170038.

Tested on: MS2 coat protein
Experiment: apparent KD of MS2 coat protein; designed switch direction (-1 OFF switch, 1 ON switch): 1; higher = weaker reporter binding
How it was run: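 Normalised cluster fluorescence was curve-fitted, and each design's median over clusters is its apparent KD. Before this, SNAP-549-labelled MS2 coat protein was titrated from 0.7 or 1.5 nM, doubling to 3 µM, over RNA switches transcribed on Illumina chips by stalled E. coli RNA polymerase. Titrations had no input, 200 uM small-molecule ligand, or an oligonucleotide input, and steps lasted 0.8–1.5 h (lowest) to 10–20 min (highest).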

[1] = input ligand: microRNA oligo, concentration not stated
[2] = Eterna round: R95, input ligand: FMN 200 uM
[3] = Eterna round: R95, input ligand: microRNA oligo, concentration not stated
[4] = Eterna round: R95, input ligand: none

Sequence	apparent KD of MS2 coat protein (input ligand: FMN 200 uM)	apparent KD of MS2 coat protein [1]	apparent KD of MS2 coat protein (input ligand: none)	apparent KD of MS2 coat protein [2]	apparent KD of MS2 coat protein [3]	apparent KD of MS2 coat protein [4]
GUUACAUGAGGAUCACCCAUGUAUGUGUGGGAGUAAGUGUCUUAGGAUAUCUAUAAUUUAAAUUAAGAGAAGGAAGAUUGUUGU [JMF's solution 10] (Eterna round: R96, puzzle: Same State NG 3)	121 nM	69.4 nM	115 nM	–	–	–
UGGUACAUGAGAGGAUAUGGGUAGAUGACAUGAGGAUCACCCAUGUUAAAGUCCGAAAGGACAUCCUAGAAGGCUCAUGUACCU [MOD of JL SSNG1 3.99] (Eterna round: R96, puzzle: Same State NG 2)	11 nM	27 nM	27.7 nM	–	–	–
CAGCGCUGUCGAGAGGAUAUGCGGUGAUGGACAUGAGGAUCACCCAUGUUAGCGACAGCAUUACGGUAGAAGGCUUCACAGCUGC [Soteed Omei mod 15] (Eterna round: R96, puzzle: Same State 2)	287 nM	14.4 nM	55.7 nM	–	–	–
CCUGCGAUAAGCGAGCGAACAUGAGGAUCACCCAUGUGGCGGCAGGAUAUGGGUGACCCAGCGACUCAGAAGGGCCGAAGCUAA [Eternabot solution 8] (Eterna round: R96, puzzle: Same State NG 3)	49.1 nM	11.9 nM	23.2 nM	–	–	–
CUGCUCGUGUGAGGAUAUGCCGCCGUUUCGGCUGCAGAAGGUGCUACGUUACAUGAGGAUCACCCAUGUCUCUGUUGUUUCGUA [salish99_SSNG1_r04_948] (Eterna round: R96, puzzle: Same State NG 1)	40.1 nM	28.8 nM	35.9 nM	–	–	–
GGAUGACGGACAGGAUAUUGAUUCUAAUGGUUUCAAGAAGGGUCUUCGAUAUAAACGACCAGUUACAUGAGGAUCACCCAUGUU [JR_SSNG1_Sub033] (Eterna round: R96, puzzle: Same State NG 1)	25.9 nM	66 nM	45 nM	–	–	–
AGCUAUCGAAAACGAUAGCAAAAGUAUGUACAUGAGGAUCACCCAUGUCAUGUACAAGCUUUUUGCUCGUCUUAAAA [Zipper 23 - 10] (puzzle: Sensor for hsa-mir-208a)	–	–	–	664 nM	19.6 nM	638 nM
GGAUGAUAGACAGGAUAUUGAUUGUAAUUAGGACAAGAAGGGUCAAUGAUUUAAACGACCAGUUACAUGAGGAUCACCCAUGUU [JR_SSNG1_Sub026] (Eterna round: R96, puzzle: Same State NG 1)	55.7 nM	34 nM	55.3 nM	–	–	–
UUAAUCUGAACAUGAGGAUCACCCAUGUAUCUUAUUUUAGGACAGGAUAUAGAUGUUAAGAAUUACUAGAAGGGUCAGUAUAUU [JR_SSNG3_Sub011] (Eterna round: R96, puzzle: Same State NG 3)	19.1 nM	20.2 nM	25.8 nM	–	–	–
CAUUGGACAUCCAGUGAGACAUGAGGAUCACCCAUGUAGGCGCAGGAUAUGCGGGUUCGGUGCUCGCAGAAGGGUGAAGAAAAC [Veenin] (Eterna round: R96, puzzle: Same State NG 3)	129 nM	98.2 nM	114 nM	–	–	–
AUAUGAGAAGCAGGAUAUGUGAAAAAAAAACAUACAGAAGGGUUUAUGGAAAAACAUGAGGAUCACCCAUGUUCUUUGUGAUGA [AK SSNG1-V2-1] (Eterna round: R96, puzzle: Same State NG 1)	–	29.6 nM	–	–	–	–
UGUUGUAUUACAGGAUAUCUAUUGUUUUCAUUUAGAGAAGGGUAUUCACAUGAGGAUCACCCAUGUAUAUACGAGGAAGUUGUG [JMF's solution 78] (Eterna round: R96, puzzle: Same State NG 1)	42.1 nM	33.1 nM	39.9 nM	–	–	–
UGAUGCCCAUCAGGAUAUGGGCCCAUGAGGAUCACCCAUGUAAAGUAGGUCCAACAGGGCCAAGUCUAGAAGGGAUGGCGGGCA [malcolm 80 ssNG2 F5+F7.1] (Eterna round: R96, puzzle: Same State NG 2)	163 nM	59.1 nM	190 nM	–	–	–
GGAGCCGGCCUAGGAUAUUUCAUAAAAACACAUGAGGAUCACCCAUGUAGGCCAGAAGGCCUUGGGAAGAAGGAGGUCGGCUCC [Loop Effect - C29] (Eterna round: R96, puzzle: Same State NG 2)	10.6 nM	18.3 nM	23.6 nM	–	–	–
GAGCCAGUCCGAGGAUAUUCGUAGGAACACAUGAGGAUCACCCAUGUGGGCUCAGAAGAGCCCUGGGAGAAGGCGGGCUGGCUC [SS-NG2-LRO18] (Eterna round: R96, puzzle: Same State NG 2)	7.53 nM	8.45 nM	17.5 nM	–	–	–
AAAAUACAUGAGGAUCACCCAUGUAGAAACUACACAGGAUAUCGGACGGCUAUAACCGAACGAGAAGGGUGAACCC [Onorvea] (puzzle: Same State 1)	–	–	–	260 nM	354 nM	362 nM

Sequence	apparent KD of MS2 coat protein (input ligand: FMN 200 uM)	apparent KD of MS2 coat protein [1]	apparent KD of MS2 coat protein (input ligand: none)	apparent KD of MS2 coat protein [2]	apparent KD of MS2 coat protein [3]	apparent KD of MS2 coat protein [4]
GAGGGACAUGAGGAUCACCCAUGUGGAAAAUUUAAAGGAUAUUAGUGUGGGAAAGUAGGGUAAGAAGGUUGAUUGG [JR_SS1_Sub085] (puzzle: Same State 1)	–	–	–	50.2 nM	54.2 nM	91.3 nM
UACAAUCUAUCUGAGGAUAUCAUGAUUGUAACAUGAGGAUCACCCAUGUGCAGGAAAACUGCAUAUGAGAAGGCAGAUAGAUUGU [salish99_ss2_r3_071] (puzzle: Same State 2)	–	–	–	113 nM	78 nM	708 nM
AUGCCCGUAGCACAGGAUAUCCGAGGCAAAACAUGAGGAUCACCCAUGUCAAACGAAAAUCCGAAGGAGAAGGGUGAACGGGCUC [Xeisquorat] (puzzle: Same State 2)	–	–	–	12 nM	11.8 nM	9.59 nM
AAAAGAAACAUGUACCUGAGUACAUGAAAACAUGAGGAUCACCCAUGUAACAAGCUGGGUGCUCGUCUUAUAAGAAA [JL pocket 1] (Eterna round: R96, puzzle: Sensor for hsa-mir-208a)	137 nM	22.3 nM	77.7 nM	–	–	–
GGAAUAUGAUGUUACAUGAGGAUCACCCAUGUAGUAAUAACUAAGGAUAUCUGAGGAGGAGGAGAAGAGAAGGUAGGAUCAUAA [AK SSNG3-V2-10] (Eterna round: R96, puzzle: Same State NG 3)	23.8 nM	22.2 nM	33.2 nM	–	–	–
AUGAAGAAUUAAGGAUAUUGAUUACAUAUGUUUAACAUGAGGAUCACCCAUGUGGGUUGCGGUAUCGAGAAGGUAAAUUACAAG [Mat - same State NG 2 - JL mod - D87] (Eterna round: R96, puzzle: Same State NG 2)	177 nM	132 nM	187 nM	–	–	–
GUGGUCCUCACAGGAUAUCAGCGGCCUUCACGCUGAGAAGGGUGACUGGGCUACAAGGCUAUAGACAUGAGGAUCACCCAUGUA [Direbe] (Eterna round: R96, puzzle: Same State NG 1)	194 nM	110 nM	194 nM	–	–	–
UAGUAUUAACGAGGAUAUAAUAUGUUCAAUUUUUUAUAUUGUUUACAUGAGGAUCACCCAUGUUAUUAGAAGGCGUAUGGGAUU [JR_SSNG2_Sub082] (Eterna round: R96, puzzle: Same State NG 2)	–	50.9 nM	–	–	–	–
UUUAGAGGCGCAGGAUAUGGUGAGGAUCACCCACUAGAAGGGUGCACAUGAGAAUCGGACAUGAGGAUCACCCAUGUUUGGCGC (Eterna round: R96, puzzle: Same State NG 1)	806 nM	554 nM	816 nM	–	–	–
UUAAGCCACGGGCAGGAUAUGUGUUAAAAUACAUGAGGAUCACCCAUGUGCAGGUGUAACACCUGACAGAAGGGCCAAUCGCGGC [Soondi - 2] (puzzle: Same State 2)	–	–	–	23.7 nM	43 nM	56.4 nM
AAAGUACAUGAGGAUCACCCAUGUCCAAAGAAGUAAGGAUAUACGGAAAGAAAAGAAAAUGUAGAAGGUACAAGAA [Same State 1 #3] (puzzle: Same State 1)	–	–	–	33 nM	65.8 nM	57.6 nM
UUGAAGAAUUAAGGAUAUUGAUUACAUAUGUUUAACAUGAGGAUCACCCAUGUGGGUUGCGGUAUCGAGAAGGUAAAUUAAUAG [Mat - same State NG 2 - JL mod - D81] (Eterna round: R96, puzzle: Same State NG 2)	168 nM	181 nM	174 nM	–	–	–
UGUACAUGAGGAUCACCCAUGUCUAGACAUGUUAAUAUAAUGUAGGAUAUAUAAUAUUUAAAUUAAUAGAAGGACAAUUUUUUU [JMF's solution 3] (Eterna round: R96, puzzle: Same State NG 3)	147 nM	115 nM	234 nM	–	–	–
GGUAGGUUACUACCAACACAUGAGGAUCACCCAUGUUUUGGGAAGGAUAUGGUACCUAUUUGGUACCAGAAGGUCCAGUUAAUG [salish99_SSNG3_r04_701] (Eterna round: R96, puzzle: Same State NG 3)	87 nM	161 nM	122 nM	–	–	–
GAGCCAGUCCGAGGAUAUUCAUAAUUAAAUACAUGAGGAUCACCCAUGUAGGCAAGAGAGCCUUGGGAGAAGGCGGACUGGCUC [Xeonanisa>>2] (Eterna round: R96, puzzle: Same State NG 2)	12.8 nM	25 nM	42.9 nM	–	–	–
